# Results taken from patent US20260374828.
# Target: Keap1 Kelch domain, Q14145
# Test: other TR-FRET
# Conditions: modification not given
# Chain of Keap1 Kelch domain, Q14145 (Q14145 whole entry, the tested form may be a part): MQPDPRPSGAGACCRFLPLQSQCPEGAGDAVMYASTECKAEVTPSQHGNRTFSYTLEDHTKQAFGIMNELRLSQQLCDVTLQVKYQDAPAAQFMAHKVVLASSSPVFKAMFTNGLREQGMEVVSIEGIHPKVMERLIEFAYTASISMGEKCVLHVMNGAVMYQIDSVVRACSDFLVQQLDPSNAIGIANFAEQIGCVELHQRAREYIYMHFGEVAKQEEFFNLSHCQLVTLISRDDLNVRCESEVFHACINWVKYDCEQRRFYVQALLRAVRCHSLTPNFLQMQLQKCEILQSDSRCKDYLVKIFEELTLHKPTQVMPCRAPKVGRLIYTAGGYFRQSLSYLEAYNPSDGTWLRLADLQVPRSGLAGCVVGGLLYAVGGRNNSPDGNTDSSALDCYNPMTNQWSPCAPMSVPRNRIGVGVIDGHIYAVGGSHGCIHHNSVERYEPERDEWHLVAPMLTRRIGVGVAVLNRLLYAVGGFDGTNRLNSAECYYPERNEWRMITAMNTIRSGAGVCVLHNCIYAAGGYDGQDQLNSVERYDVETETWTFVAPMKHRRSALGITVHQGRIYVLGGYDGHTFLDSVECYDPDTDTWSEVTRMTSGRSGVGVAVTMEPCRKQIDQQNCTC
row,IC50,Binder
1,40.4 nM,DELEPLTGFRRR [Peptide 1-8]
2,14.7 nM,RDELEPLTGFRRR [Peptide 1-9]
3,38.8 nM,RRDELEPLTGFRR [Peptide 1-3]
4,6.2 nM,DELEPLTGFRR [Peptide 1-7]
